# Measurements as given in article PMC4601532 (Science (New York, N.Y.), 2015).
# T1: Vps15, subunit of complex II (Saccharomyces cerevisiae, UniProt P22219 1-1454)
# T1 sequence: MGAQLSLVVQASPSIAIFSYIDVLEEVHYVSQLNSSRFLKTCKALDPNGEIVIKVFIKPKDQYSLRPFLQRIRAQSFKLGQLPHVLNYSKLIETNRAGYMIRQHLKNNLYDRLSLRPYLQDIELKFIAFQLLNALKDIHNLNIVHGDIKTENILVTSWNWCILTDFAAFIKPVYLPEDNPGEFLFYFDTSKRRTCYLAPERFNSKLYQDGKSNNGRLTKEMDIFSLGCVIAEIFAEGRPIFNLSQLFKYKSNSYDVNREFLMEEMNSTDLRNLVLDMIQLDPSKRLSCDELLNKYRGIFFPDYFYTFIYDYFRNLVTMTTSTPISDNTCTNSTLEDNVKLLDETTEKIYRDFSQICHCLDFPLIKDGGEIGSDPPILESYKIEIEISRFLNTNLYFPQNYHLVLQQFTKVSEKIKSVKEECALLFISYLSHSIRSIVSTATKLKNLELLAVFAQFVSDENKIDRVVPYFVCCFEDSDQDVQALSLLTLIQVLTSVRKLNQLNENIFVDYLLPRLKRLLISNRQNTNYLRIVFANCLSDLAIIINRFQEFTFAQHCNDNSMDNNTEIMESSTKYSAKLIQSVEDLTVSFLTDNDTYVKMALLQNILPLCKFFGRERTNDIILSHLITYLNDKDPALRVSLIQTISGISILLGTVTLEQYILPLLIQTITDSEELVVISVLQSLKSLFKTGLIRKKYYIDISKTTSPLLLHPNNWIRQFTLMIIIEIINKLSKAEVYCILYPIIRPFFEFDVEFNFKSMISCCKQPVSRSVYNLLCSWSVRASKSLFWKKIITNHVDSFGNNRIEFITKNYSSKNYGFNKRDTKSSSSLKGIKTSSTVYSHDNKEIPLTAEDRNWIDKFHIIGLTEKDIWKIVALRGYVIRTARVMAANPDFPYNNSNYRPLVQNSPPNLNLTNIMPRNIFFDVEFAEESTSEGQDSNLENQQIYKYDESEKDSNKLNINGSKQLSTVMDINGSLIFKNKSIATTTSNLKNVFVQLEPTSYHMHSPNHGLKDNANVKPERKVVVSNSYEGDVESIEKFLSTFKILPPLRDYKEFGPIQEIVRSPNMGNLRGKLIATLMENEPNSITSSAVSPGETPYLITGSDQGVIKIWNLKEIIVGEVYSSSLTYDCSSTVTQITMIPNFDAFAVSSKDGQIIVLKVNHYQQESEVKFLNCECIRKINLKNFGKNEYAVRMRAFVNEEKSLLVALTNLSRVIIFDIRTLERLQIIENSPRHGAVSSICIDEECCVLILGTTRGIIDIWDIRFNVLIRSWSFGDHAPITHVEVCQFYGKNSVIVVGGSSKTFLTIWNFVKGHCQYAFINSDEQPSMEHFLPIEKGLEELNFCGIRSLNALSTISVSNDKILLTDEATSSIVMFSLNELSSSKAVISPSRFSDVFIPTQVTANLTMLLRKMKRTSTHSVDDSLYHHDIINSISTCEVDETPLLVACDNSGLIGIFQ
# B1: Vps38, subunit of complex II (natural protein)
# chain: MKRFLLSRRQRHLRMICFHNISLFRANGDSKLIKEYGDGFIPCFFILESIRGELLYVSEVQSGSLRKLSFQELPKLTGASTMIVLKLVGLVPSDILCTISSDKNGIIDDKWCVLCTYTIDLNKLQPINEDTVLITGTNAPVLDLIDGSYTLAAEKIKPLKGLVSSHKRNISQVKIKFSLAYSSLLKLNKLLEYSSQVHEEINEISSKIEDDFLSLKNQNHWYMRTVQKSIETLEKEVLQRKKSKKNIEMAQLESNDTINHSKTELSLMSQDESINDDYGSIYSRFVQIKDRLDQLRFKKLYQLIGIFHSTDLFNSDRGYIYFEKPSSVNDVINRLKLKPLNIEILLRQAGESTKHREYVNSQLGYYLLFLHLTAIQIFKAPLPYRLMYYGSTSVIDSQYPLYFTDQMISKHQAKLIKAIHYFNADILQFKQILENYRPT
# B2: Vps30/ZZ-Vps38 heterodimer held on IgG beads (complex)
# chain 1: MKCQTCHLPLQLDPSLEGLSLTQRNLLLSNNSIITATNENVISNKGIEAADNCGPQIPKERLRRLGEIQNIKDLNLKDDKLITDSFVFLNHDDDDNANITSNSREDQRYGNANGNDNKKANSDTSDGTSTFRDHDEEEQEATDEDENQQIQLNSKTLSTQVNAMTNVFNILSSQTNIDFPICQDCCNILINRLKSEYDDAIKERDTYAQFLSKLESQNKEISESNKEKQYSHNLSEKENLKKEEERLLDQLLRLEMTDDDLDGELVRLQEKKVQLENEKLQKLSDQNLMDLNNIQFNKNLQSLKLQYELSLNQLDKLRKINIFNATFKISHSGPFATINGLRLGSIPESVVPWKEINAALGQLILLLATINKNLKINLVDYELQPMGSFSKIKKRMVNSVEYNNSTTNAPGDWLILPVYYDENFNLGRIFRKETKFDKSLETTLEIISEITRQLSTIASSYSSQTLTTSQDESSMNNANDVENSTSILELPYIMNKDKINGLSVKLHGSSPNLEWTTAMKFLLTNVKWLLAFSSNLLSKSITLSPTVNYNDKTISGN
# chain 2: B1 chain
# B3: Vps30/Atg6, subunit of complex II (natural protein)
# chain: B2 chain 1
# B4: Vps34 (vacuolar protein sorting 34), subunit of complex II (enzyme)
# chain: LNNITFCVSQDLDVPLKVKIKSLEGHKPLLKPSQKILNPELMLIGSNVFPSSDLIVSLQVFDKERNRNLTLPIYTPYIPFRNSRTWDYWLTLPIRIKQLTFSSHLRIILWEYNGSKQIPFFNLETSIFNLKDCTLKRGFESLKFRYDVIDHCEVVTDNKDQENLNKYFQGEFTRLPWLDEITISKLRKQRENRTWPQGTFVLNLEFPMLELPVVFIEREIMNTQMNIPTLKNNPGLSTDLREPNRNDPQIKISLGDKYHSTLKFYDPDQPNNDPIEEKYRRLERASKNANLDKQVKPDIKKRDYLNKIINYPPGTKLTAHEKGSIWKYRYYLMNNKKALTKLLQSTNLREESERVEVLELMDSWAEIDIDDALELLGSTFKNLSVRSYAVNRLKKASDKELELYLLQLVEAVCFENLSTFSDKSNSEFTIVDAVSSQKLSGDSMLLSTSHANQKLLKSISSESETSGTESLPIVISPLAEFLIRRALVNPRLGSFFYWYLKSESEDKPYLDQILSSFWSRLDKKSRNILNDQVRLINVLRECCETIKRLKDTTAKKMELLVHLLETKVRPLVKVRPIALPLDPDVLICDVCPETSKVFKSSLSPLKITFKTTLNQPYHLMFKVGDDLRQDQLVVQIISLMNELLKNENVDLKLTPYKILATGPQEGAIEFIPNDTLASILSKYHGILGYLKLHYPDENATLGVQGWVLDNFVKSCAGYCVITYILGVGDRHLDNLLVTPDGHFFHADFGYILGQDPKPFPPLMKLPPQIIEAFGGAESSNYDKFRSYCFVAYSILRRNAGLILNLFELMKTSNIPDIRIDPNGAILRVRERFNLNMSEEDATVHFQNLINDSVNALLPIVIDHLHNLAQYWRT
# Experiments:
# [1] = target: Vps38-C2 with CC1 region (Saccharomyces cerevisiae); experiment: SEC-MALS
# [2] = target: T1, Vps15, subunit of complex II; experiment: SEC-MALS
# [3] = target: B4; experiment: crystal structure
# [4] = target: B3; experiment: crystal structure
# [5] = target: Saccharomyces cerevisiae Vps15/Vps34 heterodimer (Saccharomyces cerevisiae, UniProt P22219;P22543); experiment: pull-down
# [6] = target: B1; experiment: SEC-MALS
# [7] = target: B3; experiment: SEC-MALS
stoichiometry N [2],binding result [3],stoichiometry N [6],Molecule,other results
,,,Vps30-NTD with CC1 region (domain or fragment),stoichiometry N [1]: 1
1,binds,,B1,binding result [4]: binds
,,,B2,binding result [5]: binds
1,binds,1,B3,
1,,1,B4,stoichiometry N [7]: 1
